± gives the uncertainty stated by the source.
B1: Ventral anterior homeobox 1, residues 102 to 157; numbered along this chain, Q5SQQ9 (parent)
chain: RTRTSFTAEQLYRLEMEFQRCQYVVGRERTELARQLNLSETQVKVWFQNRRTKQKK

Variants of: B1
Test: abundance fitness (aPCA) (normalised: wild type 0, dead -1); higher = more abundant; growth selection in yeast, the domain comes from the species named
Settings: Homo sapiens

Variant | abundance fitness
K55G | 0.043 ± 0.093
K55A | 0.086 ± 0.1
K55P | 0.061 ± 0.13
K55F | -0.229 ± 0.21
K55V | 0.119 ± 0.1
K55D | 0.305 ± 0.17
K55E | 0.238 ± 0.15
K55W | -0.105 ± 0.12
K55S | -0.072 ± 0.12
K55C | -0.091 ± 0.2
K55I | -0.238 ± 0.2
K55M | -0.288 ± 0.18
Q54C | -0.252 ± 0.2
Q54S | -0.125 ± 0.1
Q54A | 0.018 ± 0.09
Q54K | 0.144 ± 0.27
Q54L | -0.045 ± 0.088
Q54R | -0.237 ± 0.084
Q54I | -0.191 ± 0.32
Q54F | -0.284 ± 0.18
Q54T | -0.332 ± 0.22
Q54V | -0.017 ± 0.088
Q54P | 0.013 ± 0.12
Q54N | -0.202 ± 0.3

Variant | abundance fitness
Q54Y | -0.317 ± 0.39
Q54G | 0.005 ± 0.076
Q54E | 0.11 ± 0.12
Q54H | -0.149 ± 0.18
Q54W | -0.187 ± 0.11
T52M | 0.194 ± 0.18
T52L | -0.141 ± 0.1
T52Q | -0.145 ± 0.15
T52R | -0.249 ± 0.098
T52Y | -0.137 ± 0.3
T52N | -0.037 ± 0.25
T52P | -0.558 ± 0.19
T52V | -0.014 ± 0.1
T52W | -0.316 ± 0.14
K56V | 0.005 ± 0.22
K56I | 0.003 ± 0.39
K56A | -0.291 ± 0.3
K56L | -0.205 ± 0.24
K56Q | -0.167 ± 0.33
K56R | -0.127 ± 0.22
K56E | 0.12 ± 0.33
K56S | 0.135 ± 0.14
K56C | 0.148 ± 0.37
K56P | 0.143 ± 0.36

Variant | abundance fitness
K56W | 0.078 ± 0.38
K56G | 0.324 ± 0.18
K56H | -0.159 ± 0.27
K56N | 0.151 ± 0.34
K56Y | -0.039 ± 0.19
K56M | -0.17 ± 0.27
K53E | 0.186 ± 0.16
K53F | 0.174 ± 0.26
K53L | 0.183 ± 0.13
K53M | -0.103 ± 0.19
K53D | 0.209 ± 0.19
K53W | -0.04 ± 0.14
K53Q | 0.115 ± 0.19
K53I | -0.02 ± 0.28
K53A | 0.044 ± 0.12
K53V | 0.137 ± 0.12
K53G | -0.037 ± 0.096
K53Y | 0.292 ± 0.43
K53H | -0.226 ± 0.32
K53R | -0.088 ± 0.09
K53C | 0.202 ± 0.18
K53N | 0.199 ± 0.33
K53T | 0.197 ± 0.16
K53S | 0.161 ± 0.17

From the Human Domainome abundance scans (Beltran et al. 2025)
